Laboratory results: PMC9712074 (Cell Reports, 2022)
Changes are numbered by the printed parent chain.

B1: BD55-5264 (antibody, V domains shown)
VH: QVQLVQSGAEVKKPGASVKVSCKVSGYTLTKFSIHWVRQGHGKGLEWMGGFDIGEGGTIYAQKFQGRVTMTEDTSTDTSYMELSSLRSEDTAMYYCATDGEYSSGWAGVKLWGQGTLVTVSS
VL: DIQMTQSPSTLSASVGDRVTITCRASQSISSWLAWYQQKPGKAPKLLIYKASSLESGVPSRFSGSGSGTEFTLTISSLQPDDFATYYCQQCDSYPWTFGQGTKVEIK
B2: BD55-5268 (antibody, V domains shown)
VH: QVQLQQRGAGLLRPSETLSLTCDVSGGSFSGYYWNWVRQPPGKGLEWIGDIDLAGDNYNPSLKSRVTMSIDASKNQFSLRLSSVTAADTAVYFCVRAPNLGWFGPKQGAFDLWGQGTVVIVSS
VL: not shown
B3: BD55-5223 (antibody, V domains shown)
VH: EVQLLESGGGWVQPGGSLRLSCAASGFTFSSYAMSWVRQAPGKGLEWVSAISNTGGSTYYADSVKGRFTVSRDDSKNTLYLQMNSLRAEDTAVYYCAKNWDSIGYTSGWQHLDWFDPWGQGTLVTVSS
VL: DIQMTQSPSSLSASVGDRVTITCRASQSINTYLNWYQQKPGKAPKLLIYVASSLQSGVPSRFSGSGSGTDFTLTISSLQPEDFATYYCQQSYSSPSITFGQGTRLEIK
B4: BD55-5233 (antibody, V domains shown)
VH: EVQLLESGGGLVQPGGSLRLSCAASGFTFSRSSMGWVRQAPGKGLEWVSTISEDGYTPYYADSVKGRFTISRDNSENRLFLQMNGLRAEDTALYYCAKDVDFDKWRQTCFDSWGQGALVTVSS
VL: QSVLTQPPSVSGAPGQRVTISCTGSNSNIGAGYDVHWYQQLPGTAPKLLIYGNNNRPSGVPDRFSGSKSGTSASLAITGLQAEDEADYYCQSYDSSLNVLYVFGTGTRVTVL
B5: BD55-5245 (antibody, V domains shown)
VH: QVQLVQSGAEVKKPGSSVKVSCKASGGSLSSDGINWVRQAPGQGLEWLGRIIPIPGIADNAQKFQGRVTITADKSTSTAYMELSSLRSEDTAVYYCARAPPRGYSGYDLLGNDAFDIWGQGTMVTVSS
VL: B4 VL with N26S, I50L, N54T, S65T, S95T, N98S, V99G, L100S, R108K, T110A
B6: BD55-5263 (antibody, V domains shown)
VH: QVQLVQSGAEVKKPGASVKVSCKGSGYIFTNYGVSWVRQAPGQGLECMGWISAYNGNTDYTQKFQGRVTMTTDTSTSTAYMELRSLTSDDTAVYYCARAAHNWGPEDAFDIWGQGSMVTVSS
VL: not shown
B7: BD55-5238 (antibody, V domains shown)
VH: QEQLVESGGGVVQPGRSLRLSCAASGLTFSSYAMHWVRQAPGKGLEWVAVIWYNGLKKYYADSVKGRFTISRDNYKNTAYLQMSSLRAEDTAVYYCAREGGGDILTGNEFEFWGQGTLVTVSS
VL: QSVLTQPPSVSGAPGQTVTISCTGGSSNTGAGYDVHWYQQLPGTAPKLLIFANKNRPSGVPDRFSGSKSGTSASLSITGLQAEDEGDYYCQSYDSSLSGWVFGGGTKVTVL
B8: BD55-5236 (antibody, V domains shown)
VH: QVQLVQSGAEVKKPGSSVKVSCKASGGTFTSQAISWVRQAPGQGLEWMGRIITVLGTTTYAQKFQGRLRITADRSTNTAYMDLTGLTSDDTAVYFCARDLDGYSGYDFGSSERRDSFYFDYWGQGTLVNVPS
VL: SSELTQDPPVSVALGQTVRITCQGDSLRTYYASWFQQKPGQAPLLVVYGKNYRPSGIPARFSGSFSGNTASLTITGAQAEDEADYYCNSRDSNNDHHVIFGGGTKLTVL
B9: BD55-5242 (antibody, V domains shown)
VH: QVQLVQSGAEVKKPGASVKVSCKAFGYTFNSNYIHWVRQAPGQGLEWMGVIDPSGGATSYAQKFQGRVTMTRDTSTNTVYMELSSLRSEDTAVYYCARDLGDDVSRGYSGYDFLDLYGMDVWGQGTTVTVS
VL: not shown
B10: BD55-5256 (antibody, V domains shown)
VH: QVQLVQSGTEVKKPGSSVKVSCKASGGPFSGYVINWVRQAPGQGLEWMGGIIPVFETVKYAQKFQGRVTITAGESASTAYMELNSLRSEDTAVYYCAKSKYHSGYDVLTGRADFSLPFDYWGQGTLVTVSS
VL: DIQMTQSPSSLSASVGDRVIITCQASQDITNSLSWYQQKPGKAPKLLIYGAFNLETGVPSRFSGSGSGTDFTFAISSLQPEDIATYFCQQYADLPYTFGQGTKLDIK
B11: BD55-5248 (antibody, V domains shown)
VH: QVQLVESGGGVVQPGRSLRLSCAASGFTFSSYDMYWVRQAPGKGLEWVAVISYDGSSNFYADSVKGRFTISRDNSRNTLSLQMNSLRAEDTAVYFCARERREQLTPVFDHWGQGTLVTVSS
VL: DIQMTQSPSSLSASVGDRVTITCRASQSISSYLNWYQQRPGKAPKLLIYSASTLESGVPSRFSGSGSGTDFTLTINSLQPEDFATYYCQQSYSTLALTFGGGTKVEIK
B12: BD55-5226 (antibody, V domains shown)
VH: EVQLVESGGGLVKPGGSLRLSCAASGFTFSSYSMNWVRQAPGKGLEWVSSISMTSSYRHYADSVRGRFTISRDNANNSLFLQMNSLRAEDTAVYFCARDSNLRTGDANDYWGQGTLVTVSS
VL: not shown
B13: BD55-5265 (antibody, V domains shown)
VH: EVQLVQSGAEVKKPGESLKISCKGAGYIFTHYWIAWVRQMPGKGLEWMGIVHPGDSDTRYSPSFQAQVTISADKSINTAYLQWSSLKASDTAIYFCARHGVHSGYSGYDRWDGHYYGMDVWGQGTTVTVSA
VL: SYVLTQPPSVSVAPGKTARITCGGNNIGSKSVHWYQQKPGQAPVLVVYDGSERPSGIPERFSGSNSENTATLTISRVEAGDEADYYCQVWNDNSDSLVFGTGTEVTVL
B14: BD55-5276 (antibody, V domains shown)
VH: EVHLEESGGGLVHPGRSLRLSCAASGFTLDEYAMHWVRRAPGKGLEWVSGISWNSGARGYADSVKGRFTISRDNAKNSLYLQMNSLRAEDTAFYYCAKDNSHGSGTAWDWLDSWGQGTLVTVSS
VL: NFMLTQPHSVSESPGKTVTISCTRSSGTITNNYVQWYRQRPGSSPTTVIFEDNQRPSGVPDRFSGSIDSSSNSASLTISGLKTEDEADYYCQSHDSSNWVFGGGTKLTVL
B15: BD55-5259 (antibody, V domains shown)
VH: QITLKESGPTLVKPTQTLTLTCTFSGFSLTMPEVGVAWVRQPPGKALEWLALIYGDDNKRYSPSLESRLTITKDSSKNQVVLTMTNLDSVDTATYYCARRKFLWDSDPVAFDYWGLGTLVIVSS
VL: DIVMTQTPLSLPVTLGQPASISCRSSQSLVHIDGNIYLSWLQQRPGQPPRLLIYKISNRFSGVPDRFSGSGSGTDFTLKISRVEAEDVGVYYCMQATQFPHEMYTFGQGTKLEIR
B16: BD55-5251 (antibody, V domains shown)
VH: QITLKESGPALVKPTQTLTLTCTFSGFSLSSNGVGVGWIRQSPGKALEWLALIYWDDDKRYTPSLKKRLTVTKDTSKNQVVLTMTNMDPVDTATYYCAHMARPRGLFINPSWFDPWGQGTLVTVSS
VL: QSVLTQPPSASGTPGQRVTISCSGSSSNIGSNTIDWYQQLPGTAPRLLIYGHDLRPSGVPDRFSGSQSGTSASLVISGLQSEDEADYYCAAWDDSLNGPVFGGGTKLTVL
B17: BD55-5267 (antibody, V domains shown)
VH: QVQLQESGPGLVKPSGTLSLTCAVSGGSISSSNWWSWVRQPPGKGLEWIGEIYHSGSTNYNPSLKSRVTISVDKSKNKFSLKLSSVTAADTAVYFCARAGWIESGYDAFVGYFDYWGQGTLVTVSS
VL: DIQMTQSPSSLSASVGDRVTITCRASQGISSSLAWYQQKPGKAPDLLLYAASGLESGVPSRFSGSGSGTDFTLSISSLQPEDFATYYCQQYYSPPRTFGQGTKLEIK
B18: BD55-5250 (antibody, V domains shown)
VH: QVQLVQSGAEVKKPGASVKVSCKASGYTFTSNAIHWVRQAPGQRLEWMGWIMADNGYTKYSENFQGRVTITRDTSASTVYMEVSSLRSGDTAVYYCAREGSMWYSTYFDHWGQGTLVTVSS
VL: DIQMTQSPSSLSASVGDRVTITCRASQSISSYLTWYQQKSGTAPKLLIYAASSLQSGVPSRFSGSGSGTDFTLTISSLQPEDFATYYCQQSYTDPFTFGPGTKVDFK
B19: BD55-5219 (antibody, V domains shown)
VH: QVQLVQSGSELKRLGASVTLSCKASGYTFTNYAINWVRQAPGHGLQWMGWINPDTGTPTYAQGFAGRFVFSLDSSVSTSYLQIRSLKADDTAVYYCARDANQWPRNQWFGPWGQGTLVTVSS
VL: DIVLTQSPDSLAVSLGERATINCKSSHSVFYSSSNQNDLAWYQQKPGQPPKLLIYWASIRESGVPDRFSGSGSGTDFTLTISSLQAEDVAVYYCQQHYSTPLTFGGGTKVEIK
B20: BD55-5271 (antibody, V domains shown)
VH: QVTLKESGPVLVKPTETLTLTCTVSGISLNNARMAVSWIRQPPGKALEWLAHILSNDEKSFSKSLTSRLTISKDSSKNQVVLRLTNMDPVDTGTYYCARIVYDSSSYYYSGDNWFDPWGQGTQVTVSS
VL: SYELTQPPSVSVSPGQTARITCTGDAFPNQYAYWYQQKSGQAPVLVIYKDSERPSGIPERFSGSSAGTTVTLTISGVQAEDEADYYCQSADSRGVVFGGGTKVTVL
B21: BD55-5228 (antibody, V domains shown)
VH: QVHLVQSGSELKKPGASVKVSCKSSGHTFTIFAINWVRQAPGQGLEWMGWINTNTGNPTYAQGFTGRFVFSLDTSVNTAYLQISSLQPEDTAVYYCVGSNWGDYYFDPWGQGTLVTVSS
VL: EIVMTQSPATLSVSPGERATLSCRASYSLSSNLAWYQQKPGQAPRLLIYGASIRATGFPARFSGNGSGTEFTLTISSLQSEDFAVYYCQQYTSWPLTFGQGTKVEIK
B22: BD55-5215 (antibody, V domains shown)
VH: EVQLVESGGGLGQPGGSLRLSCAASGFTFSRYGMGWVRQAPGKGLEWVSVISGSGGATYYADSVKGRFTISRDNSKNTLFLQMNSLRVEDTAVYYCAKDGGQLQLVEIFTFDPWGRGTLVTVSS
VL: DIQMTQSPSSLSASVGDRVTITCRASQGIRNSLAWYQQKPGKAPKLLLYAASRLESGVPSRFSGSGSGTDYTLTISSLQPEDFATYYCQQYYSAWTFGQGTKVEIK
B23: BD55-5239 (antibody, V domains shown)
VH: QVQLQESGPGLVRPSQTLSLTCSVSGGSISSGTYNWAWIRQPPGKDLEWIGHIYHSGSTYYNPSLRSRVNMSVDTSKNQFSLKLSSVTAADTAVYYCARERGPIAEFDFWGQGILVTVSS
VL: DIQMTQSPSSVSASIGDGVTITCRASQGISSWLAWYQQRPGKAPKLLISAAFTLQSGVPSRFSARGSGTDFTLIISNLQPEDFATYYCQQANSFPPTFGQGTKLEIK

These binders were tested against SARS-CoV-2 (WT) Spike RBD Protein (His Tag) (SARS-CoV-2 ancestral (Wuhan-Hu-1), UniProt P0DTC2).

| Binder | binding result |
| --- | --- |
| B1 | binds |
| B2 | binds |
| B3 | binds |
| B4 | binds |
| B5 | binds |
| B6 | binds |
| B7 | binds |
| B8 | binds |
| B9 | binds |
| B10 | binds |
| B11 | binds |
| B12 | binds |
| B13 | binds |
| B14 | binds |
| B15 | binds |
| B16 | binds |
| B17 | binds |
| B18 | binds |
| B19 | binds |
| B20 | binds |
| B21 | binds |
| B22 | binds |
| B23 | binds |
